Laboratory results published in publication PMC4977002.

Assays:
Test in all cases: SPR
[1] = biological target: h9C12 H310A (mouse | human)
[2] = biological target: h9C12 H433K (mouse | human)
[3] = biological target: h9C12 H435A (mouse | human)
[4] = biological target: h9C12 I253A (mouse | human)
[5] = biological target: h9C12 L235A (mouse | human)
[6] = biological target: h9C12 N434A (mouse | human)
[7] = biological target: h9C12 N434D (mouse | human)
[8] = biological target: h9C12 N434S (mouse | human)
[9] = biological target: h9C12 P329A (mouse | human)
[10] = biological target: humanized 9C12 (h9C12), wild type, human IgG1/kappa (mouse | human)

Kd [1]: 262 nM
koff [1]: 0.086 s⁻¹
Kd [2]: 21500 nM
Kd [3]: 5530 nM
Kd [4]: 565 nM
koff [4]: 0.177 s⁻¹
Kd [5]: 226 nM
koff [5]: 0.062 s⁻¹
Kd [6]: 2000 nM
Kd [7]: 4500 nM
Kd [8]: 3600 nM
Kd [9]: 220 nM
koff [9]: 0.062 s⁻¹
Kd [10]: 212 nM
Substance: Recombinant human TRIM21 PRYSPRY (from UniProt P19474 287-465) (domain or fragment)
